This note sets out measurements from patent US20170306005A1 (NASCIENT, published 2017).

For assay [1], the target named is T1, human Fc-His-FBG (human, UniProt P24821 1974-2201).
T1 construct: C-terminal FBG fusion to human IgG1 Fc; also called Fc-His-huFBG; huFc-His-FBG; not shown: human IgG1 Fc tag; 6His tag
T1 sequence: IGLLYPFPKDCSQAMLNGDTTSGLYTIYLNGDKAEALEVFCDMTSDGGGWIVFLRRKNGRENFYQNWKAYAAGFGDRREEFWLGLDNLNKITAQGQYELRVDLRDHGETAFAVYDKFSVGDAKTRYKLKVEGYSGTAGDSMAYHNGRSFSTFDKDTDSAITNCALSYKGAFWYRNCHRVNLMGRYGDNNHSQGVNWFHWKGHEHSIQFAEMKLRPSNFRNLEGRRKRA
Put plainly: plate assay: inhibition of binding of 100 nM Fc-His-TNC-FBG to coated TLR4, against isotype control. How it is done:
FIG. 16B. […] Detection was carried out by successive incubation of antibody directed against the Fc portion of the protein, an anti-mouse HRP conjugated secondary antibody and TMB substrate.
Detection was carried out by successive incubation of antibody directed against the Fc portion of the protein, an anti-mouse HRP conjugated secondary antibody and TMB substrate.

In assay [2] the target is T2, human tenascin-C rCd4-His-FBG (rat; human, UniProt P05540 207-392, limits assumed).
T2 construct: domain: domains 3 and 4; C-terminal FBG fusion; biotinylated in the ELISA and HTRF screens; also called Hu TNC; human TNC rCd4-His-FBG; not shown: 6His tag
T2 sequence (chain (part 1 of 2)): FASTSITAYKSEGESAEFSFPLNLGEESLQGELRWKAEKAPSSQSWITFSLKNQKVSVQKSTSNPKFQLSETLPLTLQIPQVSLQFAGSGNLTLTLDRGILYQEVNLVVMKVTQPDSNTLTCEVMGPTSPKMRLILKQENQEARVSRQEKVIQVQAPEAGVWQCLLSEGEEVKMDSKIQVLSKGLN
T2 sequence (chain (part 2 of 2)): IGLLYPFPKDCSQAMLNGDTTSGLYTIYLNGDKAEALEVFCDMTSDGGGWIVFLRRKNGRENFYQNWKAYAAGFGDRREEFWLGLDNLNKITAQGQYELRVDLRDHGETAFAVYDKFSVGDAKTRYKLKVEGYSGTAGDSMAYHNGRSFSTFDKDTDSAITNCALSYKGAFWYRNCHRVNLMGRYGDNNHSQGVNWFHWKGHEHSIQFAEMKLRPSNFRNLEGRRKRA
The assay can be described thus: SPR, captured purified IgG4, 37 C. A general note: In SPR one partner is held on a chip, and binding of the other changes the refractive index at the surface.

Assay [3] has as its target T3, mouse tenascin-C rCd4-His-FBG (rat; mouse, UniProt P05540 207-392, limits assumed).
T3 construct: domain: domains 3 and 4; C-terminal FBG fusion; biotinylated in the ELISA screen; also called Mu TNC; mouse TNC rCd4-His-FBG; not shown: 6His tag
T3 sequence (chain (part 1 of 2)): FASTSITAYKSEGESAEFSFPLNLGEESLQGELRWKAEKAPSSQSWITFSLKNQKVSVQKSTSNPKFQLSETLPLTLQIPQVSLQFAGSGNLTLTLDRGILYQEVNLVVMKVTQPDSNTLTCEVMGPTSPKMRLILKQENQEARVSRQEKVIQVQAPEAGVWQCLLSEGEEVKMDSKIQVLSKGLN
T3 sequence (chain (part 2 of 2)): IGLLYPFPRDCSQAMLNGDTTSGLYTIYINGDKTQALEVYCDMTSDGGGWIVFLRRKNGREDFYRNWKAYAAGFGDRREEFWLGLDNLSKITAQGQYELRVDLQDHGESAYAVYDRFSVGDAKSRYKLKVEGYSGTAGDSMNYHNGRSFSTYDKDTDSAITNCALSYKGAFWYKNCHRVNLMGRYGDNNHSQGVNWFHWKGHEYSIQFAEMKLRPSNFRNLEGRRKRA
Put plainly: SPR, captured purified IgG4, 37 C.

In assay [4] the target is T4, rat tenascin-C rCd4-His-FBG (rat, UniProt P05540 207-392, limits assumed).
T4 construct: domain: domains 3 and 4; C-terminal FBG fusion; also called Rat TNC; rat TNC rCD4-His-FBG; not shown: 6His tag
T4 sequence (chain (part 1 of 2)): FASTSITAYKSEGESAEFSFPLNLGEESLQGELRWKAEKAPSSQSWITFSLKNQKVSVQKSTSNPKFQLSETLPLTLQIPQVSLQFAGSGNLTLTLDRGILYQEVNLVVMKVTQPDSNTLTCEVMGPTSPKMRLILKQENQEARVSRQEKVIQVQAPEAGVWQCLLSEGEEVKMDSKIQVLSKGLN
T4 sequence (chain (part 2 of 2)): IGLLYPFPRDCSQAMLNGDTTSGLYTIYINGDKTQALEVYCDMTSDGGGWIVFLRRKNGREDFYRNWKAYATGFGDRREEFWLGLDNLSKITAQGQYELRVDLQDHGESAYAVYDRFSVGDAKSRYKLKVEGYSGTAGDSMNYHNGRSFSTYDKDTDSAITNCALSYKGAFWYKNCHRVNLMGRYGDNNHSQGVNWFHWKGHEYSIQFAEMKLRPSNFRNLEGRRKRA
The assay can be described thus: SPR, captured purified IgG4, 37 C.

In assay [5] the target is T5, dog tenascin-C rCD4-His-FBG (rat; dog, UniProt P05540 207-392, limits assumed).
T5 construct: domain: domains 3 and 4; C-terminal FBG fusion; also called Dog TNC; not shown: 6His tag
T5 sequence (chain (part 1 of 2)): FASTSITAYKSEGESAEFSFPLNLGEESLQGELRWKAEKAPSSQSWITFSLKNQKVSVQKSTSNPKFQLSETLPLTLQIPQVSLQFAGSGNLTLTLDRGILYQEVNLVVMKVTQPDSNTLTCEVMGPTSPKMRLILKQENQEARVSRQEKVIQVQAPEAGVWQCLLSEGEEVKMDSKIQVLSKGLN
T5 sequence (chain (part 2 of 2)): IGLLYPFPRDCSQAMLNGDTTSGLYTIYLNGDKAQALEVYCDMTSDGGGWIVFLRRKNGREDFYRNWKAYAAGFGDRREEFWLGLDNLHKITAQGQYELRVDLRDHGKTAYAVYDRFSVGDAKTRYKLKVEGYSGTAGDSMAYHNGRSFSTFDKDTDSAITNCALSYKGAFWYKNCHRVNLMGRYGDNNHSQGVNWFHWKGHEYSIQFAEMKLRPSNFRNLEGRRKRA
Put plainly: SPR, captured purified IgG4, 37 C.

Assay [6] has as its target T6, human tenascin-R rCd4-His-FBG (rat; human, UniProt P05540 207-392, limits assumed).
T6 construct: domain: domains 3 and 4; C-terminal FBG fusion; also called Hu TNR; human TNR rCd4-His-FBG; not shown: 6His tag
T6 sequence (chain (part 1 of 2)): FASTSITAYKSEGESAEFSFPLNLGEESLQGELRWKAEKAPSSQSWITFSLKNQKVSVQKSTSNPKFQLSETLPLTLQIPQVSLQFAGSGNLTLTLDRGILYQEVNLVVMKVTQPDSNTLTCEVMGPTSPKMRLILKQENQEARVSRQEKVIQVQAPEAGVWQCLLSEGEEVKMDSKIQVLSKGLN
T6 sequence (chain (part 2 of 2)): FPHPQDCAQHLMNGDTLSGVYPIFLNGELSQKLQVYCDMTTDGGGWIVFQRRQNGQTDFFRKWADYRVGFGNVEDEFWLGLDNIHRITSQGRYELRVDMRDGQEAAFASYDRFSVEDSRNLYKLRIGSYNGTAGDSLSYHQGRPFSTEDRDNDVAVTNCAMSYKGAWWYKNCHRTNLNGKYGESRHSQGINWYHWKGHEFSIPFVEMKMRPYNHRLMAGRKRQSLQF
Put plainly: SPR, captured purified IgG4, 37 C; purified IgG4, full kinetics, SPR at 37 C. On the procedure:
Detailed kinetic parameters were evaluated for the 9 prioritised IgG4 antibodies. Binding characteristics were determined for interaction with human, rat and dog TNC rCD4-His-FBG, and human TNR rCD4-His-FBG. Kinetic assays followed essentially the same protocols as for the off-rate determinations described above, with some modifications as follows. […] Purified anti-FBG IgG4 was diluted to a concentration of 3.5 nM in PBS, pH 7.4, 0.05% Tween-20 and injected into FC2 at a flow rate of 10 μl/min, 60 s contact time. […] Antigens were prepared by doubling dilution in PBS, pH 7.4, 0.05% Tween-20 (highest concentration 100 nM except mouse rCD4-His-FBG which was 7 nM). Assays were performed at 37° C. (30 μl/min, 120 s contact time; mouse rCD4-His-FBGFBG 10 μl/min, 60 s contact time), with both the flow cell and injection chamber equilibrated to this temperature. As before, kinetic parameters were determined by reference cell subtraction and fitting the sensogram experimental data assuming a 1:1 interaction using BIAevaluation software (GE, BR-1005-97).

B1: 165_13_C3 human IgG4 (antibody, V domains shown)
VH: QVQLVESGGGLVQPGRSLRLSCAASGFTFDDYAMHWVRQAPGKGLEWVSGISGSGGSTYYADSVKGRFTISRDNAKNSLYLQMNSLRAEDTALYYCAKSYQSDEDAFDIWGQGTMVTVSS
VL: DIQMTQSPASLPTPVGDRVTITCRASQYIQGFLNWYQQKPGKAPKLLIYDASNLETGVPSRFSGSGSGTDFTLTISSLQPEDFATYYCQQSYSTPQTFGQGTKVDIKR
notes: also called IgG4 C3; C3 IgG4 MAb
For the molecule B1, the IC50 in assay [1] was 44.5 nM. The Kd in assay [2] was 0.072 nM; in assay [3] it was 0.46 nM; in assay [4], 1.22 nM; in assay [5], 1.8 nM; in assay [6], 35.8 nM. Besides, the koff came out at 0.00083 s⁻¹ in assay [2]; 0.000445 s⁻¹ in assay [3]; 0.00473 s⁻¹ in assay [4]; 0.0108 s⁻¹ in assay [5]; 0.0431 s⁻¹ in assay [6]. Besides, the kon in assay [2] worked out at 1.16e+07 M⁻¹ s⁻¹; in assay [3] it was 972000 M⁻¹ s⁻¹; in assay [4], 3.89e+06 M⁻¹ s⁻¹; in assay [5], 5.97e+06 M⁻¹ s⁻¹; in assay [6], 1.2e+06 M⁻¹ s⁻¹.

The IC50 is the point on the concentration scale where inhibition reaches its midpoint. A high value points to weaker potency in that assay. A word on the Kd: it is the equilibrium constant for the complex coming apart. A low value points to higher affinity. What is called koff is the rate constant with which the complex falls apart. The term kon denotes a measure of how fast the partners come together. High values mean fast association, low ones slow association.
